Experimental findings from publication PMC9307627, “Targeting loop3 of sclerostin preserves its cardiovascular protective action and promotes bone formation” are described below.

Holding throughout (experiment): ELONA; ELONA: 160 ng protein coated in PBS; biotinylated aptamer 45 min at RT; wash in PBS pH 7.4, 1 mM MgCl2, 5 mM imidazole, 0.05% Tween 20; streptavidin-HRP/TMB, hyperbolic fit
Data set [1] concerns the target full-length human sclerostin (FL hSOST) (human, UniProt Q9BQB4 25-213). The following applies: protein: recombinant; tags: His6; label: biotin.
Another data set has as its target T1, sclerostin loop2 (human, UniProt Q9BQB4 110-133).
T1 chain: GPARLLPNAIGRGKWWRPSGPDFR
The following applies: label: biotin.

A further data set concerns the target T2, sclerostin loop3m (human, UniProt Q9BQB4 135-164, R138A;Y139A;R140A;Q142A;R143A;V144A;G151A;E152A;R157A;K158A;V159A).
T2 chain: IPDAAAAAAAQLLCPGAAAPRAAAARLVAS
The following applies: label: biotin.

For another data set, the target named is T3, sclerostin loop3 (WT) (human, UniProt Q9BQB4 135-164).
T3 chain: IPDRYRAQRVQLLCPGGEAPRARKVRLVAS
The following applies: label: biotin.

For the next data set, the target named is T4, sclerostin loop1 (human, UniProt Q9BQB4 81-104).
T4 chain: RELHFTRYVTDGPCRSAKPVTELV
To be noted: label: biotin.

Sequence of full-length human sclerostin (FL hSOST) (Q9BQB4 25-213): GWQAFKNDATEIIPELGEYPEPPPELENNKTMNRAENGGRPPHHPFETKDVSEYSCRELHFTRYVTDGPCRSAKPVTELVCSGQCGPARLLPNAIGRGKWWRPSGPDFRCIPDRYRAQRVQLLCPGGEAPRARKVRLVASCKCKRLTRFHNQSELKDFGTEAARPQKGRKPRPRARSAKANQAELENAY

By Kd is commonly meant the constant that tells how readily two partners part at equilibrium. In the case of CCCAGACGAGACACCTCATGCTTTTCCCCGGGGGAGGGGTAT (ssDNA) [aptamer candidate 132], the Kd in data set [1] was 42.2 nM.

On to GAGGGGGCCAACTATGCTTAGTGGGGGGGTTGACCGTATC (ssDNA) [aptamer candidate 15], for which, in data set [1], the Kd was 4 nM.

For TGGGGGTAGGGGGTCCTTGGCTACGGTGATTCGGATGTGA (ssDNA) [aptamer candidate 51], the Kd in data set [1] came out at 62.2 nM.

In the case of CGGGGTGTGGGTAAATCGTTAGAAAGATTAAACAGCTGCC (ssDNA) [aptscl56m], in data set [1], the binding result is given as “no binding”.

Consider GGGTGGATTAAGGGGGCCCCGTCTGTAGGCGATTGGCGAA (ssDNA) [aptamer candidate 46], for which the Kd in data set [1] was 45.6 nM.

Regarding CGGGGTGTGGGTTCGTCGTTAGCTTGATTTGGCAGCTGCC (ssDNA) [aptscl56], the binding result was “no binding” with sclerostin loop2, “binds” in the data set with sclerostin loop3m, “binds” with sclerostin loop3 (WT) and “no binding” in the data set with sclerostin loop1. The Kd in data set [1] is 43.1 nM.

As for TGGAAGGGTGGGGGCGGGGGGTCCTCGCCTCGAACGTACG (ssDNA) [aptamer candidate 6], the Kd in data set [1] was 4.2 nM.

For the molecule TGGGGGTAGGGGGACCCTGGCTAGTTAGTCACCGTTTCGA (ssDNA) [aptamer candidate 9], in data set [1], the Kd turned out to be 3.4 nM.
